Measured values published in the nanobody polyreactivity screen of Harvey et al. (2022).

Assay: yeast display, Sf9 membrane polyspecificity reagent, FACS + sequencing; frameworks hold sequencing errors
In short: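 Galactose-induced (36–48 hours) yeast carrying a synthetic nanobody display library were exposed to 10% biotinylated, detergent-solubilized Sf9 membrane reagent at 4 °C for 1 hour. FACS followed streptavidin microbead enrichment, using low and high (top ~1%) gates for expression (anti-HA) and reagent binding (streptavidin). Colony PCR, MiSeq 2 × 250 sequencing and CDR-length filtering followed. Labels for polyreactivity reflect the gate of origin.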

Row | Sequence | polyreactivity (PSR sort gate)
1 | QVQLVESGGGLVQAGGSLRLSCAASGRIFYTYAMGWYRQAPGKERELVAVISSGGSTNYADSVKGRFTISRDNAKNTVYLQMNSLKPEDTAVYYCAAYGTKWGRGFYITGYGYWGQGTQVTVSS | low polyreactivity
2 | QVQLVESGGGLVQAGGSLRLSCAASGRIFYVNAMAWYRQAPGTEREFVAAIRVDGASTYYADSVKGRFTFSRDNAKNTVYLQMNSLKPEDTAVYYCAARTRSYWSTTYYYWGQGTEVTVSS | high polyreactivity
3 | QVQLVESGGGLVQAGGSLRLSCAASGRIFYVNAMGWYRQAPGKERELVAAIDVNDGITYYADSVKGRFTISRDNAKNTVYLQMNSLKPEDTAVYYCAAETLYWNDIIWDVEYWGQGTQVTVSS | high polyreactivity
4 | QVQLVESGGGLVQAGGSLRLSCAASGRIFYVNTMGWYRPAPGKERELVATITWGGDSTYYADSVKGRFTISRDNAKNTVYLQMNSLKPEDTAVYYCAADHHDIRLNTRRNDYRGQGTQVTVSS | low polyreactivity
5 | QVQLVESGGGLVQAGGSLRLSCAASGRIFYVYAMGWYRAPGKERELVASISYIGGSTYYADSVKGRFTISRDNAKNTVYLQMNSLKPEDTAVYYCATDYYGYTVSYLVPSWPDDYWGQGTQVTVSS | low polyreactivity
6 | QVQLVESGGGLVQAGGSLRLSCAASGRIFYVYAMGWYRQAPGKERELVAAISWSGGGTYYADSVKGRFTISRDNAKNTVYLQMNSLKPEDTAVYYCATVSGVPPGSHDYWGQGTQVTVSS | low polyreactivity
7 | QVQLVESGGGLVQAGGSLRLSCAASGRIFYVYAMGWYRQAPGKERELVAAITISGGSTYYADSVKGRFTISRDNAKNTVYLQMNSLKPEDTAVYYCAAGTQAHAYVVRPIEMDYWGQGTQVTVSS | low polyreactivity
8 | QVQLVESGGGLVQAGGSLRLSCAASGRIFYVYAMGWYRQAPGKERELVATISWSAGITYYADSVKGRFTISRDNAKNTVYLQMNSMKPEDTAVYYCAKVGRYTYSGQYDYWGQGTQVTVSS | high polyreactivity
9 | QVQLVESGGGLVQAGGSLRLSCAASGRIFYVYTMGWYRQARGKERELVAAISWSGGSTHYADSVKGRFTISRDNAKNTVYLQMNSLKTEYTAVYYCNKGVVSRVAFEYWGQGTQVTVSS | low polyreactivity
10 | QVQLVESGGGLVQAGGSLRLSCAASGRIFYWNAMGWYRQAPGKERELVAGITGGGNTNYADSVKGRFTISRDNAKNTVYLQMNSLKPEDTAVYYCATRTNRRRSYDYWGQGTQVTVSS | high polyreactivity
11 | QVQLVESGGGLVQAGGSLRLSCAASGRIFYWYAMGWYRQAPGKERELVATINQSGSSTYYADSVKGRFTISRDNAKNTVYLQMYSLKPEDTAVYYCNAGGQRPHSVGLVGEMGYWGQGTKVTVSS | high polyreactivity
12 | QVQLVESGGGLVQAGGSLRLSCAASGRIFYYAMGWYRPAPGKERELVAAISRSGGSTYYADSVKGRFTISRDNAKNTVYLQMNSLKPEDTAVYYCAAVIYIYPISKRDYWGQGTQVTVSS | low polyreactivity
13 | QVQLVESGGGLVQAGGSLRLSCAASGRIFYYNAMGGYTQAPGKERELVAAIDWSGGSTYYADSVKGRITISRANAKNTVYLQMNSLKPEDTAVYYCNAPFRYVPPEGSGPYDYWGQGTQVTVSS | low polyreactivity
14 | QVQLVESGGGLVQAGGSLRLSCAASGRIFYYNAMGWYRQAPGKEREFVAAISSGGGSTYYADSVKGRFTISRDNAKNTVYLQMNSLKPEDTAVYYCAADGYYYDYYYYWGDYGYWGQGTQVTVSS | high polyreactivity
15 | QVQLVESGGGLVQAGGSLRLSCAASGRIFYYNAMGWYRQAPGKERELVAAITRGGSTYYADSVKGRFTISRDNAKNTVYLQMNCLKPVDTAVYYCAADRPGYSRYTTSVKGQRYYYWGQGTQVTVSS | high polyreactivity
16 | QVQLVESGGGLVQAGGSLRLSCAASGRIFYYNAMGWYRQAPGKERELVAAITSGGSTNYADSVKGRFSISRDNAKNTVYLQMNSLNPEDTAVYYCAADYYYYVAGVHYDYWGQGTQVTVSS | low polyreactivity
17 | QVQLVESGGGLVQAGGSLRLSCAASGRIFYYNAMGWYRQAPGKERELVAAITYSGTSTYYADSVKGRFTISRDNAKNTVYLQMNSLKPEDSAVYYCAVDSTDQAPPTYDYWGQGTQVTVSS | low polyreactivity
18 | QVQLVESGGGLVQAGGSLRLSCAASGRIFYYNAMGWYRQAPGKERELVAGITSRGRSTYADSVKGRFTISRDNAKNTVYLQMNSLKPEDTAVYYCAAVYRLWGKDYDYWGQGTQVTVSS | high polyreactivity
19 | QVQLVESGGGLVQAGGSLRLSCAASGRIFYYNAMGWYRQAPGKERELVASITGSGGSTYYADSVKGRFTISRDNAKNTVYLQMNSLKPEDTAVYYCANREYLYPYYYVAKYDYWGQGTQVTVSS | low polyreactivity
20 | QVQLVESGGGLVQAGGSLRLSCAASGRIFYYNDMGWYRQAPGKERELVAAITWTDDGTYYADSVKGRFTISRDNAKNTVFLQMNSLKPEDTAVYYCAAESFYGFEYWGQGTQVTVSS | low polyreactivity
21 | QVQLVESGGGLVQAGGSLRLSCAASGRIFYYNSKGWYRQAPGKERELVAAITSGDNTKYADSVKGRFTISRDKAKNTVYLQMNSLKPEDTAVYYCAARRYAPYQRRMDYWGQGTQVTVSS | high polyreactivity
22 | QVQLVESGGGLVQAGGSLRLSCAASGRIFYYNTMGWYRQAPGKERELVAAITTNGGSTYYADSVKGRFTISRDNAKNTVYLQMNSLKPLDTAVYYCKRDRYPYYYAYNYWGQGTQVTVSS | low polyreactivity

Row | Sequence | polyreactivity (PSR sort gate)
23 | QVQLVESGGGLVQAGGSLRLSCAASGRIFYYYAMGWYRQAPGKEREFVAAISQRGGSTSYADSVKGRFTISRDNAKNTVYLQMNSLKPEDTAVYYCAAEYYLRVSGRTYVTSHDYWGQGTQVTVSS | high polyreactivity
24 | QVQLVESGGGLVQAGGSLRLSCAASGRIFYYYAMGWYRQAPGKEREFVADISARGGSTYYADSVKGRFTISRDNAKNTVYLQMNSLKPEDTAVYYCAATTGLYTRYGYWGQGTQVTVSS | high polyreactivity
25 | QVQLVESGGGLVQAGGSLRLSCAASGRIFYYYAMGWYRQAPGKERELLAAITRGGGTYYADSVKGRFTISRDNAKNTVYLQMNSLKPEDTAVYYCAKRGPPESHHPYRYRFDYWGKGTQVTVSS | low polyreactivity
26 | QVQLVESGGGLVQAGGSLRLSCAASGRIFYYYAMGWYRQAPGKERELVAAISASGASTYYADSVKGRFTISRDNAKNTVYLQMNSLKPEDTAVYYCAAEEFYYYSADWYDYWGQGTQVTVSS | high polyreactivity
27 | QVQLVESGGGLVQAGGSLRLSCAASGRIFYYYAMGWYRQAPGKERELVAAISWSGVNTYYADSVKGRFTISRDNAKNTVYLQMNSLKPEDTAVYYCAAGFAYKYSKGFWSDYWGQGTQVTVSS | high polyreactivity
28 | QVQLVESGGGLVQAGGSLRLSCAASGRIFYYYAMGWYRQAPGKERELVAAITRGDSTTYADSVKGRFTISRDNAKNTVYLKMNILKPEDTAVYYCNAGRGTFKRYTALQYWGQGTQVTVSS | low polyreactivity
29 | QVQLVESGGGLVQAGGSLRLSCAASGRIFYYYAMGWYRQAPGKERELVAGIDSGDSTNYADSVKGRFTISRDNAKYTVYLQMNSLKPEDTAVYYCAALHFGGYFSYYPYYYWGQGTQVTVSS | low polyreactivity
30 | QVQLVESGGGLVQAGGSLRLSCAASGRIFYYYAMGWYRQAPGKERELVATISGIGGSTYYADSVKGRFTISRDNAKNTVYLQMNSLKPEDTAVYFCTADYPTSYPLFKSGFDYWGQGTQVTVSS | low polyreactivity
31 | QVQLVESGGGLVQAGGSLRLSCAASGRIFYYYAMGWYRQAPGKERELVAVISRGGRTKYADSVKGRFTISRDNAKNTVYLQMNSLKPEDTAVYYCAAYPSYYGDSGLRYDYWGQGTQVTVSS | high polyreactivity
32 | QVQLVESGGGLVQAGGSLRLSCAASGRIFYYYGMGWYRQAPGKERELVAAISNGGRTYYADSVKGRFTISRDNAKNTVYLQMNSLKPEDTAVDYCAALTRGRGGYDYWGQGTQVTVSS | high polyreactivity
33 | QVQLVESGGGLVQAGGSLRLSCAASGRIFYYYVMGWYRQAPGKERELVAAISSRGGSTYYADSVKGRFTISRDNAKNTVYLQMNSLKPEDTAVYYCAAEYGSISLRYPYYWRYDYWGQGTQVTVSS | high polyreactivity
34 | QVQLVESGGGLVQAGGSLRLSCAASGRIGKYAMGWYRQAPGKERELVATISSTGTTNYADSVKGRFTISRDNAKNTVYLQMNSLKPEDTAVYYCAADKPSYRTLSWGGYWGQGTQVTVSS | high polyreactivity
35 | QVQLVESGGGLVQAGGSLRLSCAASGRIGRYAMGWYRQAPGKERELVAVITSGDSTYYADSVKGRFTISRDNAKNTVYLQMNSLTPEDTAVYYCAADSYRRWGNLFTGNEYDSWGQGTQVTVSS | low polyreactivity
36 | QVQLVESGGGLVQAGGSLRLSCAASGRIIASYAMGWNRHAPGKETELVAAISLSGGSTYYADSVKGRFTISRDNAKNTVYLQMNSLKPEDCAVYYCAAKNYRRYRDYYWGQGTQVSVSS | high polyreactivity
37 | QVQLVESGGGLVQAGGSLRLSCAASGRIIAVNAKGWYRQAPGKERELVAAINGGGSTNYADSVKGRFTISRDNAKNTVYLQMNSLKPEDTAVYYCAADVGWRSQTRGYYWGQGTQVTVSS | high polyreactivity
38 | QVQLVESGGGLVQAGGSLRLSCAASGRIIAYYAMGWYRQAPGKERELVAGINSGGGSTYYADSVKGRFTISRDNAKNTVYLQMNSLKPEDTAVYYCAARAGGVDGYDYWGQGTQVTVSS | high polyreactivity
39 | QVQLVESGGGLVQAGGSLRLSCAASGRIIDFYTMGWYRQAPGKERELVAGINGSGASTYYADSVKGRFTISRDNAKNTVYLQMNCLKPEDTAVYYCAKDPGYYDDYDYWGQGTQVTVSS | low polyreactivity
40 | QVQLVESGGGLVQAGGSLRLSCAASGRIIFHNAMGWYRQAPGKERELVASITSGDGTYYSDSVKGRFTISRDNAKNTVYLQMNSMKPEDTAVYYCAAEPGSIAYYYNRVGLYYWGQGTQVTVSS | low polyreactivity
41 | QVQLVESGGGLVQAGGSLRLSCAASGRIIGLYARGWYRQAPGKERELVAAITWRGGRTYYADSVKGRFTISRDNAKNTVYVQMNRLSPEDTAVYYCAADLSNSLDYWGQGSQVTVSS | high polyreactivity
42 | QVQLVESGGGLVQAGGSLRLSCAASGRIIGWYAMGRYRQAPGKERELVAAISQDATRTYYADSVKGRFTISRDNAKHTVYLQMNRLKPEDTAVYYCNVVYRYAGWSYDSWGQGTQVTVSS | high polyreactivity
43 | QVQLVESGGGLVQAGGSLRLSCAASGRIIGYYAKGWYRQAPGKERELVAAISYSGGATYYADSVKGRFTISRDNEMNTVYLQSKSLKPEVTAVYYCAAQGRWPQRYGYWGQGTQVTVSS | high polyreactivity
